From patent US20110318360A1

B1: mAb 11.31 (PGN 632) (antibody, V domains shown)
VH: QVQLQESGPGLVKPSGTLSLTCAVSGGSISSSNWWSWVRQPPGKGLEWIGEIYHSGSTNYNPSLKSRVTISVDKSKNQFSLKLSSVTAADTAVYYCARSRFRSWLVKRRYVYFDYWGQGTLVTVSS
VL: SSELSQDPAVSVALGQTVRITCQGDSLRSYYASWYQQKPGQAPVLVIYGKNNRPSGIPDRFSGSSSGNTASLTITGAQAEDEADYYCNSRDSSGNVVFGGGTKVTVL

Key:
[1] = target: HIV-1 B.MN Env on Aldrithiol-2 inactivated virions (HIV-1)
[2] = target: HIV-1 B.ADA Env on Aldrithiol-2 inactivated virions (HIV-1)
[3] = target: HIV-1 B.AD8 Env on Aldrithiol-2 inactivated virions (HIV-1)
[4] = target: Env of HIV-BaL.LucR.T2A.ecto/hPBMC (HIV-1)
[5] = target: HIV-1 C.DU123 Env (HIV-1)

| Molecule | IC90, inhibition of fusion (syncytia) induced by Aldrithiol-2 inactivated HIV-1 in SUP-T1 cells [1] [µg/mL] | IC90, inhibition of fusion (syncytia) induced by Aldrithiol-2 inactivated HIV-1 in SUP-T1 cells [2] [µg/mL] | IC90, inhibition of fusion (syncytia) induced by Aldrithiol-2 inactivated HIV-1 in SUP-T1 cells [3] [µg/mL] | mean IC80, inhibition of HIV-1 infection of PBMC from 75 donors [4] [µg/mL] | IC50, neutralization of HIV-1 Env pseudovirus in TZM-bl cells (HIV-1 B.PVO Env (HIV-1)) [µg/mL] | IC50, neutralization of HIV-1 Env pseudovirus in TZM-bl cells [5] [µg/mL] | IC50, neutralization of HIV-1 Env pseudovirus in TZM-bl cells (HIV-1 B.6535 Env (HIV-1)) [µg/mL] |
| --- | --- | --- | --- | --- | --- | --- | --- |
| 2F5 (antibody) | < 1.2 | < 1.2 | 3.4 |  |  |  |  |
| 4E10 (antibody) | < 1.2 | < 1.2 | 10 | 20.4 | 2.2 | < 2 | < 2 |
| Bavituximab (antibody) |  |  |  |  | > 50 | > 50 | > 50 |
| IgG1b12 (antibody) |  |  |  | 9.2 |  |  |  |
| B1 |  |  |  |  | > 50 | > 50 | > 50 |
